From patent US11419948B2, “Functionalized microgels with fibrin binding elements” (Georgia Tech Research Corporation, priority 2013, dated 2022) come the findings set out here.

For assay [1], the target named is T1, fibrinogen (Homo sapiens, UniProt P02671+P02675+P02679).
T1 sequence (P02671 20-629 limits assumed): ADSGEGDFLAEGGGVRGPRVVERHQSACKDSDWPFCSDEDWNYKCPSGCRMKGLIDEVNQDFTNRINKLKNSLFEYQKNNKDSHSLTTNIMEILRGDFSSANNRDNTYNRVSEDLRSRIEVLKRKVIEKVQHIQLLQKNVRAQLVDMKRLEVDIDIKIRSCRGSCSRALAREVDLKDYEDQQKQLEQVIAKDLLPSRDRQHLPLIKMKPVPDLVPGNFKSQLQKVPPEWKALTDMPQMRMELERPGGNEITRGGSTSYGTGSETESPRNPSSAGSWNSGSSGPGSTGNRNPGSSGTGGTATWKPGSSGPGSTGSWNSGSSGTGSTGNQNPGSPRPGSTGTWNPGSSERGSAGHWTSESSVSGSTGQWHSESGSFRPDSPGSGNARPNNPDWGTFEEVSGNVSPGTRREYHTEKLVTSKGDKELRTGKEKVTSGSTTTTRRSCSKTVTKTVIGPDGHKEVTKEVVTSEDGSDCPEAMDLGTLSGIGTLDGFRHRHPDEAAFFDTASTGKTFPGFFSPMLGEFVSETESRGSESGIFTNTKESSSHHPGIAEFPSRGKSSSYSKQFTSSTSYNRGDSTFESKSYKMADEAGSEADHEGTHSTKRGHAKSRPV
T1 sequence (P02675 31-491): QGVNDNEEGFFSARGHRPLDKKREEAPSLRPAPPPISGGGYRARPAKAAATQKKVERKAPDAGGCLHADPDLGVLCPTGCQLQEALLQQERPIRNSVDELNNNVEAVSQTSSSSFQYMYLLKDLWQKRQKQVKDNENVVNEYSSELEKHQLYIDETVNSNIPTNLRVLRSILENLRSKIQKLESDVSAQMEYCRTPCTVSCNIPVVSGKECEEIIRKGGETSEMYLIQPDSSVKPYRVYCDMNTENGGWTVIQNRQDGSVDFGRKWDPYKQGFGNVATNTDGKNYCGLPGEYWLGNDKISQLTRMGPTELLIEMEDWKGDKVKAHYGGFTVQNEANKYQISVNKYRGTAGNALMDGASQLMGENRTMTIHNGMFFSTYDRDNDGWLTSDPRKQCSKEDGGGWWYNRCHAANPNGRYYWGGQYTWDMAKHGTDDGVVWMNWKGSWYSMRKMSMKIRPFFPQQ
T1 sequence (P02679 27-453): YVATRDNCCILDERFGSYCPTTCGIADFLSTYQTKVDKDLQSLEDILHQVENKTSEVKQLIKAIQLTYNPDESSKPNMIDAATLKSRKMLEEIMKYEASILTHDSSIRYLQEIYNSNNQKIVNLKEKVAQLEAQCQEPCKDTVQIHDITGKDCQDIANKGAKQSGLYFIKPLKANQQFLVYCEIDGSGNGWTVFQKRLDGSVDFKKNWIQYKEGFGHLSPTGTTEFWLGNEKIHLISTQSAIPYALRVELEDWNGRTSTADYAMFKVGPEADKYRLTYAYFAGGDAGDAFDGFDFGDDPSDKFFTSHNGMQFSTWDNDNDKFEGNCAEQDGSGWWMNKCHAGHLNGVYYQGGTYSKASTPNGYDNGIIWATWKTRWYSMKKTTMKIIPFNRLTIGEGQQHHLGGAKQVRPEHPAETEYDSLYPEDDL
Briefly: SPR on immobilized fibrinogen surface. The assay is classed as binding. On the procedure:
Based on previous SPR protocols developed in the lab^4, a thin fibrin layer was immobilized on the surface of a gold SPR chip via layer-by-layer deposition of fibrinogen-thrombin-fibrinogen^3. SdFvs were flowed across the fibrin surface and the binding interactions were evaluated and recorded. Additionally, antibody fragment binding interactions with a surface of immobilized fibrinogen was used to investigate the specificity to fibrin. All SPR data was examined and analyzed with Scrubber 2 and Clamp XP (Center for Biomolecular Interactions Analysis, University of Utah). Data simulation curves were generated based on a Langmuir 1:1 binding model assuming only a single ligand-analyte interaction.

For the next assay, the target named is T2, fibrin D-Dimers (Homo sapiens, UniProt P02671+P02675+P02679, DEL433-453).
T2 construct: ELISAs against plates coated with adsorbed fibrin D-Dimers or E Regions
T2 sequence (P02671 130-216 limits assumed): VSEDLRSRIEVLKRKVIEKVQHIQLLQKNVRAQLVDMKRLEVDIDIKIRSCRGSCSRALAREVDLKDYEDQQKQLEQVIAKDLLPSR
T2 sequence (P02675 164-491 limits assumed): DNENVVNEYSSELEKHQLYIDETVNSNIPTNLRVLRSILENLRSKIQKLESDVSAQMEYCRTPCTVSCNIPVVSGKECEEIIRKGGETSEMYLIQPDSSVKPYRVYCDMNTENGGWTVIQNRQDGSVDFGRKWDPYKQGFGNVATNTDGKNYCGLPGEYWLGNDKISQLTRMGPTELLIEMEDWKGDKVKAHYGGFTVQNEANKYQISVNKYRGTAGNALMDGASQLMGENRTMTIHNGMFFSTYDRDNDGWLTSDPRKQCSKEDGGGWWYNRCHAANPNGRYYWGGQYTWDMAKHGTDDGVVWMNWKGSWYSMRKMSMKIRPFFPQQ
T2 sequence (P02679 114-432 limits assumed): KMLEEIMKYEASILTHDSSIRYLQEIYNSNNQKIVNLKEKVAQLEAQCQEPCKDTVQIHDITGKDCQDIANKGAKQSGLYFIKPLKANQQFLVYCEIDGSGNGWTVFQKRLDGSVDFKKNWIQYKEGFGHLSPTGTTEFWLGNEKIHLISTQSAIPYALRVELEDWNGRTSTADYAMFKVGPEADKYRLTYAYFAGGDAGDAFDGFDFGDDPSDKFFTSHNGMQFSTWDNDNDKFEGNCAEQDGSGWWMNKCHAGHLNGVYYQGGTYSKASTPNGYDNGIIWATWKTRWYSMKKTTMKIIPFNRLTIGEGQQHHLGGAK
Briefly: ELISA against adsorbed fibrin D-Dimers. The assay is classed as binding. To be noted: D-Dimer dilutions. The procedure:
This was determined through ELISAs against plates coated with adsorbed fibrin D-Dimers or E Regions.
ELISA set-up and analysis was identical to that performed for the plasma-binding ELISA, the main exception being a substitution of human plasma dilutions for D-Dimer or E Region dilutions adsorbed to the 96-well plates. Both D-Dimer and […]
In general terms: ELISA stands for enzyme-linked immunosorbent assay.

The target in assay [2] is T1, fibrinogen. Briefly: Clottability assay (protein incorporation into clot). As to conditions: all H6 concentrations tested. The assay is classed as biochemical. The procedure:
The clottability assay involved clotting purified fibrinogen or fibrinogen in the presence of H6 or S11, subsequently removing the gelled clot from solution, and measuring the amount of protein that was not incorporated into the clot. The same molar ratios of H6 and S11 to fibrinogen were investigated as per the turbidity assay. Soluble protein concentrations were measured using standard Quant-It assay protocols, and results were normalized to unpolymerized fibrinogen or fibrinogen-nanobody solutions of identical protein composition.

B1: H6: fibrin-specific human sdFv clone from phage biopanning, SEQ ID NO: 1 (protein)
VHH: QVQLLESGGGLVQPGGSLRLSCAASGDRFTHNDMGWVRQAPGKGLEWVSTIPTTDGSTYYADSVKGRFTISRDNSKSTLYLQMNSLRAEDTAVYYCATGYMWKAPAYVKYWGQGTLVTVSSAAAEQKLISEEDLNSAAHYTDIG
As to B1, the binding to fibrinogen entry in the assay with fibrinogen [1] is given as “negligible binding”. Further, the “binding to D-Dimer” value with fibrin D-Dimers is “negligible binding”. Also, in the assay with fibrinogen [2], the “protein incorporation (clottability)” value was “greater than 80%”.
